Test results taken from US20180237511A1 (Sanofi, published 2018).
Where two headings read alike, the source gives them in different places.

Experiments:
[1] = target: T1, human beta-dystroglycan extracellular domain (soluble) (human, UniProt Q14118 654-749); assay: SPR (Biacore) kinetics; mAb immobilized, hBeta-DG in flow
T1 construct: extracellular domain; The expression construct of soluble human beta-DG is not described (only the mouse one); One entry is used for all soluble human beta-DG, also for the crystal structure; also called hBeta-DG; hbeta-DG
T1 sequence (looked up): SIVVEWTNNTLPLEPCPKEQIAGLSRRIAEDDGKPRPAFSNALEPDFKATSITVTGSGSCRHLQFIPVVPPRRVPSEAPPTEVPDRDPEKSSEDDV

[2] = target: T2, murine beta-dystroglycan extracellular domain (mbeta-DG ECD), HPC4 tagged (mouse, UniProt Q62165 652-746); assay: SPR (Biacore) kinetics; mAb immobilized, mBeta-DG in flow
T2 construct: range 652-746; Made in E. coli as MBP fusion; MBP cleaved off with TEV protease; also called mbeta-DG-HPC4; murine beta-DG; not shown: C-terminal HPC4 tag
T2 sequence (looked up): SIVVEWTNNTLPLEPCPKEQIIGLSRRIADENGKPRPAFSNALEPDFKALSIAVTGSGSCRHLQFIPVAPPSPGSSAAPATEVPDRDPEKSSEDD

[3] = target: T1, human beta-dystroglycan extracellular …; assay: sequential SPR (Biacore): antibody immobilised on a CM5 chip, human LG-4/5 and then human beta-DG flowed over
Method: Parental monoclonal antibodies (AS19, C3 and C21) and three bispecific antibodies (AS19×C3 and AS30×C3 in TBTI, and AS30×C3 in CODVIg) were each immobilized onto individual CM5 Series S Biacore chips (GE Healthcare). Human or murine LG-4/5, followed in sequence by human or murine beta-DG, was flown over each chip and binding was assessed.
Parental mAbs to LG-4/5 or beta-DG and biAbs of anti-LG4/5 and beta-DG were captured onto biacore chips, and then flowed with human LG4/5 and human beta-DG sequentially to determine their concurrent bindings to both antigens. […] In contrast, parental monoclonal antibodies were only able to bind to one target, either LG-4/5 (C3 and C21 in FIGS. 6A & 6B) or beta-DG (AS19 in FIGS. 6A & 6B).

[4] = target: T3, human laminin G-like 4 and 5 domains of laminin-2 (hLG-4/5), soluble (human, UniProt P24043 2729-3122, biotinylated in the ELISA of Example 6); assay: SPR (Biacore) kinetics, antibody as ligand on the chip, hLG4/5 monomer in flow, fit 1:1 Binding
T3 construct: range 2729-3122; also called human LG-4/5; hLG4/LG5; not shown: Avi tag and HPC4 tag left after TEV cleavage of the N-terminal mIgG2a fusion partner
T3 sequence (looked up): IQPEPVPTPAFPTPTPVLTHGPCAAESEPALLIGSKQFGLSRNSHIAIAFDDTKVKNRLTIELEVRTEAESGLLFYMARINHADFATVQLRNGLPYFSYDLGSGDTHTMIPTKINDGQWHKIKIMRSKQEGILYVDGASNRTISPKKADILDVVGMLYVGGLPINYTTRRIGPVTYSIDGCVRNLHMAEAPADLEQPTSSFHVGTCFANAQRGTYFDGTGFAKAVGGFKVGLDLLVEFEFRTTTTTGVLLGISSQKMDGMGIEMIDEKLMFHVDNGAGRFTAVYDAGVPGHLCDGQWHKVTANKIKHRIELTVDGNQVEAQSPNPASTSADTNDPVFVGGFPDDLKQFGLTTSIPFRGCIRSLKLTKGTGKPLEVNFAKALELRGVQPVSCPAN

[5] = target: T4, human laminin G-like 5 domain of laminin-2 (hLG-5) (human, UniProt P24043 2936-3122, soluble biotinylated protein (Avi tag)); assay: SPR (Biacore) kinetics; mAb immobilized, hLG-5 in flow
T4 construct: The construct used for the crystal structure with C21 Fab is not described; the same entry is used; also called human LG-5; human LG5; not shown: N-terminal Avi and HPC4 tags
T4 sequence: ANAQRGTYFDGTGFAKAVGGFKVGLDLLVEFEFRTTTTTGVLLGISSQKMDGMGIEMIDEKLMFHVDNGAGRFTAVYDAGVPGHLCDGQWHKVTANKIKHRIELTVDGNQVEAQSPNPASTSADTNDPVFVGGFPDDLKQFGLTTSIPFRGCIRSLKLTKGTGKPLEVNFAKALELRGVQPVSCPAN

[6] = target: T5, human beta-DG fused to the human hIgG1 Fc antibody region (hbeta-DG-hFc) (human, UniProt Q14118 654-749, limits assumed); assay: double deck sandwich ELISA: plate coated with human LG-4/5, then mAb, then hbeta-DG-hFc, HRP anti-hFc
T5 construct: not shown: human IgG1 Fc region
T5 sequence (looked up): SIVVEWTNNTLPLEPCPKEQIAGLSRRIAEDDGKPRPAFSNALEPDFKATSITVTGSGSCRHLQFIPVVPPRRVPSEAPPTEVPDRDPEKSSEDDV
Method: (§1) 96-well plates were coated with 50 ng human LG-4/5 and blocked with 5% fetal bovine serum in PBS. Each well was incubated with 1 μg of the generated bispecific antibodies (murine IgG backbone). After 2 hours, wells were washed with PBS and re-incubated with 16 ng to 1 μg per well of human beta-DG fused to the human hIgG1 Fc antibody region (hbeta-DG-hFc). After 2 hours, wells were washed with PBS, incubated with a HRP conjugated anti-hFc secondary antibody for 45 minutes, washed again with PBS, and developed for colorimetric measuring.
(§2) Colorimetric signals could be detected only when hLG-4/5 and hbeta-DG-hFc were both added in the assay (FIG. 7). No signal was detected when parental monoclonal antibodies were used or when hbeta-DG-hFc was omitted. Three bispecific antibodies (biAbs), T1T2, T5T6, and C5C6, had the anticipated signal indicating simultaneous binding to both targets. The parental anti-LG4/5 or anti-beta-DG mAbs, or biAbs without beta-DG-hFc in the 2nd step were all negative in this assay.

[7] = target: murine laminin G-like 5 domain of laminin-2 (mLG-5) (mouse) (UniProt Q60675); assay: SPR (Biacore) kinetics; mAb immobilized, mLG-5 in flow
[8] = target: T6, murine laminin G-like 4 and 5 domains of laminin-2 (mLG-4/5), soluble (mouse, UniProt Q60675 2725-3118); assay: SPR (Biacore) kinetics, antibody as ligand on the chip, mLG4/5 monomer in flow, fit 1:1 Binding
T6 construct: range 2725-3118; also called murine LG-4/5; not shown: Avi tag and HPC4 tag left after TEV cleavage of the N-terminal mIgG2a fusion partner
T6 sequence (looked up): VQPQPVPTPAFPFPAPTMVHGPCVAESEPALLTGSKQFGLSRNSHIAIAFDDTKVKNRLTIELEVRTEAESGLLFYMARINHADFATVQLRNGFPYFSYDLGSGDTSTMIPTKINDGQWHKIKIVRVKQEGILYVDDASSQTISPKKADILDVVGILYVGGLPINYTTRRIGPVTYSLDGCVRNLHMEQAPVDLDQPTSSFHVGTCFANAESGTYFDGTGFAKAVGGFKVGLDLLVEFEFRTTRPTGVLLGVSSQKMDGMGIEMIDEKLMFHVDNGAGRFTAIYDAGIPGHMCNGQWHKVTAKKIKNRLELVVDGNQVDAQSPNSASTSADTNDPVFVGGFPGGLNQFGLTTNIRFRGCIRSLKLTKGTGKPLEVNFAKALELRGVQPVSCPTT

[9] = target: T6, murine laminin G-like 4 and 5 domains …; assay: as above; remark: listed apart in the source
[10] = target: T3, human laminin G-like 4 and 5 domains of …; assay: SPR (Biacore) kinetics, antibody as ligand on the chip, hLG4/5 monomer in flow, fit 1:1 Binding; remark: listed apart in the source
[11] = target: T5, human beta-DG fused to the human hIgG1 …; assay: double deck sandwich ELISA: plate coated with human LG-4/5, then biAb, then hbeta-DG-hFc, HRP anti-hFc; a signal needs both bindings at once
Method: as §1, §2

| Binder | binding result [3] | Kd [5] [nM] | koff [5] [s⁻¹] | kon [5] [M⁻¹ s⁻¹] | binding result [6] | Kd [7] [nM] | koff [7] [s⁻¹] | kon [7] [M⁻¹ s⁻¹] | other results |
| --- | --- | --- | --- | --- | --- | --- | --- | --- | --- |
| anti-beta-DG antibody derived from phage display clone B04 (antibody, V domains shown, Phage display clone) VH: QVQLQQSGGGLVQPGGSLRLSCAASGFTFSSYAMSWVRQAPGKGLEWVSAISGSGGSTYYADSVKGRFTVSRDNSKNTLYLQMNSLRAEDTAVYYCARLGYCSSTSCYLSAFDIWGQGTMVTVSS VL: EIVLTQSPSTLSASVGDRVTITCRASQSISSWLAWYQQKPGKAPKLLIYDASSLESGVPSRFSGSGSGTEFTLTISSLQPDDFATYYCQQYNSYPLTFGGGTKVEIK |  |  |  |  |  |  |  |  | koff [1]: 0.0016 s⁻¹; kon [1]: 62000 M⁻¹ s⁻¹; Kd [2]: 25.7 nM; koff [2]: 0.0016 s⁻¹; kon [2]: 62000 M⁻¹ s⁻¹ |
| anti-laminin-2 antibody derived from hybridoma clone C21 (antibody, V domains shown, Hybridoma monoclonal antibody (detected with anti-mouse IgG); also called anti-laminin-2(C21)) VH: EVMLVESGGGLVKPGGSLKLSCAASGFTFSSYTMSWVRQTPEKRLEWVATISSGGDNTYYPDSVKGRFTISRDNAKNNLYLQMSSLRSEDTALYYCARFDYGSSLDCWGQGTTLTVSS VL: DIVLTQSPATLSVTPGDSVSLSCRASQSISNYLHWYQQKSHESPRLLIKYASQSISGIPSRFSGSGSGTDFTLSINSVETEDFGMYFCQQSKSWPRTFGGGTELEIK | no binding | 2.8 | 0.00131 | 467000 | no binding (tested: 1000 ng/ml) | 3.04 | 0.00253 | 813000 | Kd [4]: 2.8 nM; koff [4]: 0.00131 s⁻¹; kon [4]: 467000 M⁻¹ s⁻¹; Kd [8]: 3.04 nM; koff [8]: 0.00253 s⁻¹; kon [8]: 813000 M⁻¹ s⁻¹ |
| anti-laminin-2 antibody derived from hybridoma clone C3 (antibody, V domains shown, Hybridoma monoclonal antibody (detected with anti-mouse IgG); also called C03; anti-laminin-2(C3)) VH: DVMLVESGGDLVKPGGSLKLSCAASGFTFSSYTMSWVRQTPEKRLEWVASISSGGGNTYYPDSVKGRFTISRDNAKNNLYLQMSSLRSEDTALYYCARFDYGSSLDSWGQGTTLTVSS VL: DIVLTQSPATLSVTPGDSVSLSCRASQSISNNLHWYQQKSHESPRLLIKYASQSISGIPSRFSGSGSGTDFTLSINSVETEDFGMYFCQQSKNWPRTFGGGTKLEIK | no binding | 2.66 | 0.0013 | 488000 | no binding (tested: 1000 ng/ml) | 8.27 | 0.00429 | 519000 | koff [9]: 0.00429 s⁻¹; kon [9]: 519000 M⁻¹ s⁻¹; koff [10]: 0.0013 s⁻¹; kon [10]: 488000 M⁻¹ s⁻¹ |
| bispecific antibody T1T2: anti-beta-DG(AS19) x anti-laminin-2(C3), TBTI with (GGGGS)2 linker (bispecific antibody, also called AS19xC3 in TBTI; biAb (AS19xC3); not shown: IgG1 heavy chain constant region: murine IgG1 (GenBank AAA75163.1) or human IgG1 (Genbank Q569F4); murine IgG backbone i; kappa light chain constant region: murine kappa chain (Genbank BAB33404) or human kappa chain (Genbank Q502W4)) heavy: QVQLQQSGPELVKPGASVKMSCKASGFTFTDSVISWVKQRTGQGLEWIGEIYPGSGSIYYNEKFKGKATLTADKSSNTAYMQLRSLTSEDSAVYFCAMRRSYWGQGTLVTVSAGGGGSGGGGSDVMLVESGGDLVKPGGSLKLSCAASGFTFSSYTMSWVRQTPEKRLEWVASISSGGGNTYYPDSVKGRFTISRDNAKNNLYLQMSSLRSEDTALYYCARFDYGSSLDSWGQGTTLTVSS light: DVLMTQTPLSLPVSLGDQASISCRSSQSIVHSNGNTYLEWYLQKPGQSPKLLIYKVSNRFSGVPDRFSGSGSGTDFTLKISRVEAEDLGVYYCFQGSHVPLTFGAGTKLELKGGGGSGGGGSDIVLTQSPATLSVTPGDSVSLSCRASQSISNNLHWYQQKSHESPRLLIKYASQSISGIPSRFSGSGSGTDFTLSINSVETEDFGMYFCQQSKNWPRTFGGGTKLEIK | binds |  |  |  |  |  |  |  | binding result [11]: binds |
